From article PMC2597023 (Journal of cellular biochemistry, 2008)

Target: full-length human IGFN1 with an N-terminal c-myc tag (human, UniProt Q86VF2-2 1-868)
Test: co-IP

B1: endogenous eEF1A1 of mouse C2C12 myoblasts (natural protein, mouse (endogenous in C2C12), UniProt P10126 1-462, looked up)
chain: MGKEKTHINIVVIGHVDSGKSTTTGHLIYKCGGIDKRTIEKFEKEAAEMGKGSFKYAWVLDKLKAERERGITIDISLWKFETSKYYVTIIDAPGHRDFIKNMITGTSQADCAVLIVAAGVGEFEAGISKNGQTREHALLAYTLGVKQLIVGVNKMDSTEPPYSQKRYEEIVKEVSTYIKKIGYNPDTVAFVPISGWNGDNMLEPSANMPWFKGWKVTRKDGSASGTTLLEALDCILPPTRPTDKPLRLPLQDVYKIGGIGTVPVGRVETGVLKPGMVVTFAPVNVTTEVKSVEMHHEALSEALPGDNVGFNVKNVSVKDVRRGNVAGDSKNDPPMEAAGFTAQVIILNHPGQISAGYAPVLDCHTAHIACKFAELKEKIDRRSGKKLEDGPKFLKSGDAAIVDMVPGKPMCVESFSDYPPLGRFAVRDMRQTVAVGVIKAVDKKAAGAGKVTKSAQKAQKAK
fold of eEF1A1 immunoprecipitated against cells with the empty pCMV-myc vector: ~4 fold
